The text below walks through data of paper PMC10042821, “Cryo-EM structure of human eIF5A-DHS complex reveals the molecular basis of hypusination-associated neurodegenerative disorders” (Nature Communications, 2023).

What all share (assay): MST; His-tagged DHS variants labelled with RED-tris-NTA 2nd Generation, 8.32 nM; eIF5A titrated, sixteen dilutions 0.00175–57.5 μM; 50 mM Tris, 200 mM NaCl, 5 mM β-ME pH 8; Monolith NT.115, 40% excitation power, 60% MST power; no NAD or SPD
Conditions in all cases: both partners purified

Test [1] has as its target T1, deoxyhypusine synthase F272A, His-tagged (human, UniProt P49366 1-369, F272A, RED-tris-NTA 2nd Generation dye on the His tag).
T1 construct: human deoxyhypusine synthase, Uniprot P49366, residues 1-369, site-directed mutant of the pET24d full-length construct; also called DHS F272A; source: E. coli, purified; not shown: 6xHis, N-terminal, kept
T1 sequence (looked up): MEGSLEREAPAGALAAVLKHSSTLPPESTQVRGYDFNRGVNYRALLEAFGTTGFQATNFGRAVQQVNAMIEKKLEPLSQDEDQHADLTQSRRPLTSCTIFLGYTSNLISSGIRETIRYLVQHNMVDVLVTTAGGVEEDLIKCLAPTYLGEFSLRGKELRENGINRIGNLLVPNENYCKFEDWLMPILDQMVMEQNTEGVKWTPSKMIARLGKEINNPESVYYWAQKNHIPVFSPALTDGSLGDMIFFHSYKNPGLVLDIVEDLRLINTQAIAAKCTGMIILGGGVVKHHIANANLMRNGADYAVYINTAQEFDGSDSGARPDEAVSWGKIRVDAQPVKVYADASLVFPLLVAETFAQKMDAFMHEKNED

Test [2] has as its target T2, deoxyhypusine synthase E137A, His-tagged (human, UniProt P49366 1-369, E137A, RED-tris-NTA 2nd Generation dye on the His tag).
T2 construct: human deoxyhypusine synthase, Uniprot P49366, residues 1-369, site-directed mutant of the pET24d full-length construct; also called DHS E137A; source: E. coli, purified; not shown: 6xHis, N-terminal, kept
T2 sequence (looked up): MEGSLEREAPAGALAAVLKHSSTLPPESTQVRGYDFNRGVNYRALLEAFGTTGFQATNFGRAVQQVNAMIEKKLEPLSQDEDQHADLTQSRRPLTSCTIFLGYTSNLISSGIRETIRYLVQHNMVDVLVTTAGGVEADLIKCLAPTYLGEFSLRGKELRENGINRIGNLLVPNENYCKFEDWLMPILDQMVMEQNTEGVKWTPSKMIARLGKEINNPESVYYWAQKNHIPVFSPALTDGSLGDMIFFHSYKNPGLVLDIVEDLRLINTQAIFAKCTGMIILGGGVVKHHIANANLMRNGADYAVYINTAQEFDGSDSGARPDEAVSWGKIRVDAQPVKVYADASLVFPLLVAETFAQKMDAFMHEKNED

Test [3] has as its target T3, deoxyhypusine synthase Y176A, His-tagged (human, UniProt P49366 1-369, Y176A, RED-tris-NTA 2nd Generation dye on the His tag).
T3 construct: human deoxyhypusine synthase, Uniprot P49366, residues 1-369, site-directed mutant of the pET24d full-length construct; also called DHS Y176A; source: E. coli, purified; not shown: 6xHis, N-terminal, kept
T3 sequence (looked up): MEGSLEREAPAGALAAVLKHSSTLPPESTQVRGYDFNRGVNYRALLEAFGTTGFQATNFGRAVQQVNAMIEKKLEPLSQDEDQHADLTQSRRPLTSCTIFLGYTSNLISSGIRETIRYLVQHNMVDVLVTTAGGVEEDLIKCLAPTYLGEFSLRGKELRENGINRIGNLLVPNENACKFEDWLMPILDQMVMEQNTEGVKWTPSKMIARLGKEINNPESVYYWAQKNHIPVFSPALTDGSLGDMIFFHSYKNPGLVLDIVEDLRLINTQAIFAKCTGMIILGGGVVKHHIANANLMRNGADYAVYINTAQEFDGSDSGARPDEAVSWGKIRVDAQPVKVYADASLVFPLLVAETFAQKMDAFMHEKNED

For test [4], the target named is T4, deoxyhypusine synthase M244A, His-tagged (human, UniProt P49366 1-369, M244A, RED-tris-NTA 2nd Generation dye on the His tag).
T4 construct: human deoxyhypusine synthase, Uniprot P49366, residues 1-369, site-directed mutant of the pET24d full-length construct; also called DHS M244A; source: E. coli, purified; not shown: 6xHis, N-terminal, kept
T4 sequence (looked up): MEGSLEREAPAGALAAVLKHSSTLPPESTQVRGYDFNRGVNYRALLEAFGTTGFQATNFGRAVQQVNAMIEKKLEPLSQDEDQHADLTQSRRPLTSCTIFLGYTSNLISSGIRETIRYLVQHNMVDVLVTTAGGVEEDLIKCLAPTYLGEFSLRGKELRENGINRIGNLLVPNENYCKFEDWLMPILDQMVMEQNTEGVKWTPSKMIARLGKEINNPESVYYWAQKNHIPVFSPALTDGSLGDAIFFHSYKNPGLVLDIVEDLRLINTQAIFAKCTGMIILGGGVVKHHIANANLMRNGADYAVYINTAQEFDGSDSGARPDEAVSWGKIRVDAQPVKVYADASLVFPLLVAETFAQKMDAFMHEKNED

B1: eukaryotic translation factor 5A (eIF5A-1), residues 15-151 (domain or fragment)
chain: not shown
notes: human eIF5A1, residues 15-151, from pET28-MHL (Addgene); The purification protocol removes the tag with TEV; source: E. coli, purified (HisTrap, TEV cleavage, reverse HisTrap, SEC); not shown: His tag, N-terminal, cleaved
As to B1, the Kd – broadly, the free concentration of one partner at which half of the binding sites on the other are occupied at equilibrium, for simple one-to-one binding – in test [1] is 0.504 ± 0.154 µM; in test [2], 2.55 ± 0.88 µM; in test [3], 1.09 ± 0.548 µM; in test [4] it was above 5 µM.
